Experimental data from the nanobody polyreactivity screen of Harvey et al. (2022).

Experiment: yeast display, Sf9 membrane polyspecificity reagent, FACS + sequencing; frameworks hold sequencing errors
Outline: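 Synthetic nanobody libraries on Saccharomyces cerevisiae BJ5465 were galactose-induced for 36–48 hours, stained 1 hour at 4 °C with 10% biotinylated, detergent-solubilized Sf9 membrane reagent and enriched on streptavidin microbeads. FACS then separated cells into low and high (top ~1%) gates by anti-HA (expression) and streptavidin (reagent binding) fluorescence. Genes were colony-PCR amplified, MiSeq 2 × 250 sequenced and CDR-length filtered. A clone's polyreactivity label is that of its gate of origin.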
In the case of “QVQLVESGGGLVQAGGSLRLSFAASGSIFTPNVMGWYRPAPGKERELVAAISQSGGSTFYADSVKGRFTISRDNAKNTVYLQMNSLKPEDTAVYFCATEYYGPVYDLDYDYWGQGTQVTVSS”, the “polyreactivity (PSR sort gate)” value is reported as “low polyreactivity”.
With “LVQLVESGGGLVQAGGSLRLSCAASGRTFRLNALGWYRPAPGNERELVARITGSSGGSTYSADSVKGRFTISRDNAKNTVYLQMNSLKPEDTAVYYCAARYTPRGKRYDYWGQGTQVTGSS” the “polyreactivity (PSR sort gate)” value was “high polyreactivity”.
For “QVQLVESGGGLVQAGGSLRLICAASGYTFPDYAMGWYRPAPGTERELVAAIRSGGGTNYADSVKGRFTISRDNAKNSVYLQMNSMKPEDTAVFYCAKEWAGGLYDYWGQGTQVTVSS”, the “polyreactivity (PSR sort gate)” value was “low polyreactivity”.
For “QVQHVESVGGLVQAGGSLPLSGASSGFIFRKNAMGWYRQATGKEREFVAAISRRGGCTYYADSVKGRFTISRDNAKNTVYLQMNSLKPEDTAVYYCNAELYDVGSHEYDYWVQGTQVTVSS”, the “polyreactivity (PSR sort gate)” value was “high polyreactivity”.
For “QVQLVESGGGLVQAGGSLRLSCAASGRTFWRYAMGWYRQAPGKERELVARISWRGGSTNYADSVKGRFTISRDNAKITVYVQMNSLKAEDTAVYYCAADNSRYFLTGYDYWGQGTQVTVSS”, the “polyreactivity (PSR sort gate)” value was “low polyreactivity”.
In the case of “QVQLVESGGGLVQAGGSLRLSCAASGRILRYKAMGWYRQAPGKDRELVAAMSSGGSTYADSVKGRFTISRDNAKNTVYLQMNSLKPEDTAVYYCAVQSTRRGPYSWPYGYWGQGTQVTVSS”, the “polyreactivity (PSR sort gate)” value is reported as “high polyreactivity”.
With “QVQLVESGGGLVQAGGSLRLSCAASRGIFWVYAMGWYRQATGKEREMVAAISNSDTSTSYADSVKGRFTISRDNAKNTVYLQMNSLKPEDTALYYCNADSPSLSGDYWGQGTQVTVSS” the “polyreactivity (PSR sort gate)” value was “low polyreactivity”.
In the case of “QVQLVESGGGLVQAGGSLRLSCAASGSIFYTYAMGWYRQAPWKEREFVAASTGTGVRTYYADSVKGRFTISRDNAKNTVYLPMNSLKPEDTAVYYCAAVSAYRWIGLTNYSTYGYWGQGTQVTVSS”, the “polyreactivity (PSR sort gate)” value is reported as “high polyreactivity”.
In the case of “QVQLVESGGGLVQAGGSLRLSCAASGRTFGINAMGWYRPAPGKERELVAAIRTGGSTYYADSVKGRFTISRDNAKNTVYLQMNSLKPEDTAVFYCAAVLYHNRKTEYTYGYWGQGTQVTVSS”, the “polyreactivity (PSR sort gate)” value is reported as “high polyreactivity”.
With “QVQLVESGGGLVQAGGSHRLSCASSGRTFYRNAMGWYRQPPGKERELVAAISSGTSTNYADSVKGRFTISRDNAKNTVYLQMNSLKPEDTAVYYCAKERPRGAPAYYSRIYDYWGQGTQVTVSS” the “polyreactivity (PSR sort gate)” value was “high polyreactivity”.
For “QVQLVESGGGLVQAGGSLRLSCAASGFIFKPYAMGWYRQAPGKERELVAAITVNGGTTYYADSVKGRFTISRDNAKNTVYLQMNSLKPEDTAVYYCNRGRPGGPSWYHYDYWGQGTQGTVSS”, the “polyreactivity (PSR sort gate)” value was “high polyreactivity”.
With “QVQLVESGGGLVQAGGSLRLSCAASGFTFYTNAMGWYRQAPGHERELVARISRRGGSTYYADSVKGRFTISRDNAKNTVYLQMNSLKPEDTAVYYCNADGRAAVQYDYWGQGTQVTVSS” the “polyreactivity (PSR sort gate)” value was “high polyreactivity”.
In the case of “QVQLVESGGGLVQAGGSLRLSCAASGRSFRDYGMGWYRQAPGKERELVAVITWGGGSTYYADSVKGRFTISRDNAKNTVYLQMNSLKPEDTAVYYCAKEYHYYYWGQGTQVTVSS”, the “polyreactivity (PSR sort gate)” value is reported as “low polyreactivity”.
For “QVQLVESGGGLVQAGGSLRLICAASGRIFRVYAMGWYRQSPGKERELVAAISSRGGRTYYADSVKGRFTISRDNAKNTVYLQMKSMIPEDTAVYYCAADGRSSSRTTYRYDYWGQGTQVTVSS”, the “polyreactivity (PSR sort gate)” value was “high polyreactivity”.
For “QVQLLESGGGLVQAGGRLRLSCADSGGIIAYNAIGWYRQAPAKERELVAAISSSGGRTYYADSVKGRFTISRDNAKITVYLQMNSLKPEDTAVYYFAAVRSGIEYGYWGQGTQVTVSS”, the “polyreactivity (PSR sort gate)” value was “high polyreactivity”.
For “QVQLVESGGGLVQAGGSLRLSCAASGRTFYDYAMGWYREAPGKEMELVASIRGSDGSTYYADSVKGRFTISRDKAKNTVYLQMNSLKPEDTSVYYCAARGFYGTNGRVYITSYYYLGQGTQVTVSS”, the “polyreactivity (PSR sort gate)” value was “high polyreactivity”.
In the case of “QVQLVESGGGLVQAGGSLRLSCAASGSIFRSYAMGWYRQAPGTERELVDGISYSGGSTYYADSVKGRFTISRDNAKNTVYLQMNSLKPEDTAVYYCNVDGGTYFFFVGAWGEYDYWGQGTQVTVSS”, the “polyreactivity (PSR sort gate)” value is reported as “low polyreactivity”.
With “QVQLVESGGGLVQAGGSLRLSCAASGLIFGGNAMGWYRQAPGKERELVAAITYRTGSTYYADSVKGRFTISRDNAKITVYLQMNSLKPEDTAVYDCAAAVSLGYPVAFYYWGQGTQVTVSS” the “polyreactivity (PSR sort gate)” value was “low polyreactivity”.
In the case of “QVQLVESGGGLVQAGGSLRLSSAASGSIFDPYAMGWYRQAPGKERELVAGISFSGGRTYYADSVKGRFTISRDNAKNTVYLQMNSLKPEDTAVYYCNKLLTQGAYPYYYWGQGTQVTVSS”, the “polyreactivity (PSR sort gate)” value is reported as “high polyreactivity”.
For “QVQLVESGGGLVQAGGSLRLSCAASAFIFGHYAMGWYRQAPGKERELVAGINSSGGSTHYADSVKGRFTISRDNAKKTVYLQMNSLKPEDTAVYYCAVAARTRARVLYGYDYWGQGTQVTVSS”, the “polyreactivity (PSR sort gate)” value was “low polyreactivity”.
With “QVQLVESGGGLVQAGGSLRLSCAASGSTFPYYDMGWYRQAPGKERELVAAISWSGDSTYYADSVKGRFTISRDNAKNTVYLQMNRLKPEDTAVYYCAAYSDYWSYLSTDDYWGQGTQVTVSS” the “polyreactivity (PSR sort gate)” value was “low polyreactivity”.
In the case of “QVQLVESGGGLVQAGGSLRLSCAASGLIVQVYDMGWYRQAPGKEMELVAAISSGSNTNYADSVKGRFTISRDNAKNTVYLLMNSLKPEDTAVYYCAASWGYGALTPDMGYWGQGTQVTVSA”, the “polyreactivity (PSR sort gate)” value is reported as “low polyreactivity”.
With “QVQLVESGGGLVQAGGSLRLSCAASGRTFDWYAMGLYRQAPGKERELVAAISWSGGSTYYADSVKGRFTISRDNAKNTVYLQMNSLKPEDTAVYYCATDSYTEQSWVAEGYSGQGTQVTVSS” the “polyreactivity (PSR sort gate)” value was “low polyreactivity”.
For “QVQLEESGGGLVQAGGSLRLSCAASGGTLRYYVMGSYRQAPGKERELVAAISWSGDSTYYADSVKGRFTISRDNAKNTVYLQMNSLKPEDTAVYYCAATYYLTYYYGQANHGYDYWGQGTQVTVSS”, the “polyreactivity (PSR sort gate)” value was “low polyreactivity”.
In the case of “QVQLVESGGGLVQAGGSLRLSCAASGRTYRSYTMGWYRQAPGKERELVASISRRGGSTYYADSVKGRFTISRDNAKNTVYLQMNSLKPEDTAVYYCAAVNVYDAYEYWGQGTQVTVSS”, the “polyreactivity (PSR sort gate)” value is reported as “high polyreactivity”.
With “QVQLVESGGGLVQAGGSLRLSCAASGLIFGYYAMGCYRQAPGKERELVAAISSSGSTYYADSVKGRFTISCDNEKNTVYLQMNSLKPEDTAVYYCNVDISSYGGDYWGQGTQVTVSS” the “polyreactivity (PSR sort gate)” value was “low polyreactivity”.
In the case of “QVQLVESGGGLVQAGGSLRLSCAASGSIFGWYAMGWYRQAPGKERELVAAISSSDGSTYYADSVKGRFTISRDNANNTVYFPMNSLKPEDTEVYYCATDYAFTYAQYDYWGQGTQVTVSS”, the “polyreactivity (PSR sort gate)” value is reported as “low polyreactivity”.
For “QVQLVESGGGLVQAGGSLRLSCAASGSTFVPYAMGWYRQAPGKERELVASISWRGGSTSYADSVKGRFTISRDNAKNTVYLQMNSLKPEDTAVYYCAARPRYRYKQDYYYWGQGTQVTVSS”, the “polyreactivity (PSR sort gate)” value was “high polyreactivity”.
With “QVQLVESGGGLVQAGGSLRLSCAASGFTFGGYAMGWYRQAPGKERELVAAISSGGSTYYADSVKGRFTISRDNAKNTVYLQMNSLKPEDTAVYYCATDLRRYSYRGGHYYWGQGTQVTVSS” the “polyreactivity (PSR sort gate)” value was “high polyreactivity”.
With “QVQLVESGGGLVQAGGSLRLSCAASGLIFRRYALGWYRQAPGKERELVAVISSGGRTYYADSVKGRFTISRDNAKNTVYLQMNSLKPEDTAVYYCAARTRSYWGTYGSYHYDYWGQGTQVTVSS” the “polyreactivity (PSR sort gate)” value was “high polyreactivity”.
For “QVQLVESGGGLVQAGGSLRLSCAASGSIFPYYVMGWYRQAPGKERELVAAISTSDGSTYADSVKGRFTISRDNAKNTVYLQMNSLKPEDTAVYYCAVANVYYEGYDYWGQGTQVTVSS”, the “polyreactivity (PSR sort gate)” value was “low polyreactivity”.
In the case of “QVQLVESGGGLVQAGGSLRLSCAASGGTFTYYAMGWYRQAPGKVRELVAAISWSGGSTYYADSVKGRFTISRDIAKNSVYLQMNSLKPEDSAVYYCAADYTGHFYYYWGQGTQVTVSS”, the “polyreactivity (PSR sort gate)” value is reported as “low polyreactivity”.
For “QVQLVESGGGIVQAGGSLRVSCAASGSIFLDNAMGWYRQAPGKERELVADISYSGGSTYYADSVKGRFTISRDNAKNTVYLQMNSLKPEDTAVYYCAAGVQLTVPPLRSSVTEYDYWGQGTQVTVSS”, the “polyreactivity (PSR sort gate)” value was “low polyreactivity”.
In the case of “QVQLVESGGGLVQAGGSLRLICAASGNIFAYYAMGWYRQAPGKERELVAGISRRAGNTYYADSVTGRFTISRDNAKNTVYLHMNSLKREDTAFYYCNKYTKRSGMDYWGQGTQVTVSS”, the “polyreactivity (PSR sort gate)” value is reported as “high polyreactivity”.
In the case of “QVQLVESGGGLVQAGGSLRLSCAASGSIFSKNAMGWYRQAPGKERELVAAISWSGDRTYYADSVKGRFTISRDNAKNTVYLQMNSLKPEDTAVYYCAADYTVKYGYWGQGTQVTVSS”, the “polyreactivity (PSR sort gate)” value is reported as “high polyreactivity”.
In the case of “QVQLVESGGGLVQAGGSLRLSCAASGRIFGWYAMGWYRQAPGKERELVAAISWSGGSTYADSVKGRFTISRDNAKNTVYLQMNSLKPEDTAVYYCAADVAYVEYDYWGQGTQVTVSS”, the “polyreactivity (PSR sort gate)” value is reported as “low polyreactivity”.
For “QVQLVESGGGLVQAGGSLRLSCAASGRTFRSYAMGWYRQAPGKERELVAVISSDGSTYYADSVKGRFTISRDNAKNTVYLQMNSLKPEDTAVYYCAAEYTFEEIGGVEFDYWGQGTQVTVSS”, the “polyreactivity (PSR sort gate)” value was “low polyreactivity”.
In the case of “QVQLVESGRGLVQAGGSLRLSCAASGRTFSYYVMGWYRQAPGKERELVAAISDSGGSTYYADSVKGRFTISRDNAKNTVYLQMNSLKPEDTAVYYCATDSYWYRLREYNYWGQGTQVTVSS”, the “polyreactivity (PSR sort gate)” value is reported as “high polyreactivity”.
With “QVQLVESGGGLVQAGGSLRLSCAASGRTFGVNAMGWYRQAPGKERELVAAISRSTGSTYYADSVKGRFTISRDNAKNTVYLQMNSLKPEDTAVYYCARDVYYRGYKYGYWGQGTQVTVSS” the “polyreactivity (PSR sort gate)” value was “high polyreactivity”.
For “QVQLVESGGGLVQAGGSLRLSCAASGRTSRYYAMGWYRQAPGKERELVATITRGGTTNYADSVKGRFTISRDNAKNNVYLQMNSLKPEDTAVYYCNKVFRAPGVSDYGYWGQGTQVTVSS”, the “polyreactivity (PSR sort gate)” value was “high polyreactivity”.
With “QVQLVESGGGLVQAGGSLRLSCAASGSTFPSYAMGCYRQAPAKERELVAAINSGGGTNYADSVKGRFTISRDNAKNTVYLQMNSLKPEDTAVYYCAKSRYDYTKTEGGYWGQGTQVTVSS” the “polyreactivity (PSR sort gate)” value was “low polyreactivity”.
In the case of “QVQLVESVGGLVQAGGSLPLTCAASGYTIGPNVMGWYRQAPGKERELVASITSGTSTYYADSVKGRFTISRDNAKNTVYLQMNSLKPEDTAVYYCAAKYSFGRTRWYGYWGQGTQVTVSS”, the “polyreactivity (PSR sort gate)” value is reported as “high polyreactivity”.
In the case of “QVQLVETGGGLVQAGGSLRLSCASSGRTCVDNTMGWYRQEPGKESELVATITSGDSTNYEESVKGRFTISRDNAKYTVYLQMNSLKPEDTAVYYCAAVTNWYYYYTHRMEYWGQGTQVTVSS”, the “polyreactivity (PSR sort gate)” value is reported as “low polyreactivity”.
